According to the nanobody polyreactivity screen of Harvey et al. (2022):

test: yeast display, Sf9 membrane polyspecificity reagent, FACS + sequencing; frameworks hold sequencing errors
Outline: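 A nanobody's polyreactivity label depends on the gate it was sorted from. Yeast display cells were stained with 10% biotinylated, detergent-solubilized Sf9 membrane reagent for 1 hour at 4 °C, enriched on streptavidin microbeads and sorted by FACS. The low and high (top ~1%) gates were set on anti-HA fluorescence for expression and streptavidin fluorescence for reagent binding.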

| Sequence | polyreactivity (PSR sort gate) |
| --- | --- |
| QVQLVESGGGLVQAGGSLRLSCAASGSIFPYYAMGWYRQAPGKERELVAAISDSGDSTYYADSVKGRFTISRDNAKNTVYLQMNSLKPEDTAVYYCAADQTSSYYDPWGDYWGQGTQVTVSS | low polyreactivity |
| QVQLVESGGGLVQAGGSLRLSCAASGSIFPYYAMGWYRQAPGKERELVAAISGSGGSTYYADSVKGRFTISRDNAKNTVYLQLNSLKPVDTAVYYCATADVYVYWYTSTDDYWGQGTQVTVSS | low polyreactivity |
| QVQLVESGGGLVQAGGSLRLSCAASGSIFPYYAMGWYRQAPGKERELVAAISWSGTSTYYADSLKGRFTISRDNAKNTVYLQMNSLKPEDTAVYYCAASAVGTNHYGYWNESDYWGQGTQVTVSS | low polyreactivity |
| QVQLVESGGGLVQAGGSLRLSCAASGSIFPYYAMGWYRQAPGQEREFVASISSVTSTYADSVKGRFTISRDNAKNTVYLQMNSQKPEDPAVYYCAADRAYSWYSVSRYNYWGQGTQVTVSS | low polyreactivity |
| QVQLVESGGGLVQAGGSLRLSCAASGSIFPYYTMGWYRQAPGKERELVAAINYSGASTYYADSVKGRFTISRDNAKNTVYLQMNSLKPEDTAVYYCAADYPPLYRKYVYWGQGTQVTVSS | low polyreactivity |
| QVQLVESGGGLVQAGGSLRLSCAASGSIFPYYVMGWYRQAPGKERELVAAISTSDGSTYADSVKGRFTISRDNAKNTVYLQMNSLKPEDTAVYYCAVANVYYEGYDYWGQGTQVTVSS | low polyreactivity |
| QVQLVESGGGLVQAGGSLRLSCAASGSIFQAYVMGWYRQAPGKERELVATIDRRGGITYYADSVKGRFTISRDNAKNTVYLQMNSLKPEDTAVYYCATRTRLAQYSRGRYRYDYWGQGTQVTVSS | high polyreactivity |
| QVQLVESGGGLVQAGGSLRLSCAASGSIFQFYTMGWYRQAPGKERELVAAISSGGTRRYYADSVKGRFTISRDNAKNTVYLQMNSLKPEDTAVYYCAAPWSSSWSGVRTRMGYWGQGTQVTVSS | high polyreactivity |
| QVQLVESGGGLVQAGGSLRLSCAASGSIFQGNAMGWYRQAPGKERDLVAAISGGDSTNYADSVKGRFTISRDNAKNNVYLQMNSLKPEDTAVFYCNALSHWAPASYEYDYWGQGTQVTVSS | low polyreactivity |
| QVQLVESGGGLVQAGGSLRLSCAASGSIFQGNVMGWYRPAPGKERELVAAISYSGDSTYYADSVKGRFTISRDNAKNTVYLQMNRLKPEDSAVYYCYAYRNRYGYRTSSRRYGYWGQGTQVTVSS | high polyreactivity |
| QVQLVESGGGLVQAGGSLRLSCAASGSIFQGYAMGWYRKAPGKERELVAAITSSGGSTRYADSVKGRFTISRDNAKNTVYLQMNSLKPEDTAVYYCAARYKWPYDYWGQGTQVTVSS | high polyreactivity |
| QVQLVESGGGLVQAGGSLRLSCAASGSIFQHYAMGWYRQAPGKEREFVAAISGRGGGTYYADSVKGRFTISRDNAKNTVYLQMNSLKPEDTAVYYCAADYRGSYWRYYYWGQGTQVTVSS | high polyreactivity |
| QVQLVESGGGLVQAGGSLRLSCAASGSIFQIVYAMGWYRQAPGKERELVAAISRGGSTYYADSVKGRFTISRDNAKNTVYLQMNSLKPEDTAVYYCAADIVELSPRGVYHFDYWGQGTQVTVSS | high polyreactivity |
| QVQLVESGGGLVQAGGSLRLSCAASGSIFQKYAMGWYRPAPGKERELVAAITSSGSTNYADSVKGRFTISRDNAKNTVYLQMNSLKPEDTAVYYCAADRYAGYYSWYYPLWSSKDDYWGQGTQVTVSS | low polyreactivity |
| QVQLVESGGGLVQAGGSLRLSCAASGSIFQKYTMGWYRQAPGKERELVAAITRSGGSTYYADSVKGRFTISRDNAKNTVYLQMNSLKPEDSAVYYCNKRYIPWAYDYWGQGTQVTVSS | high polyreactivity |
| QVQLVESGGGLVQAGGSLRLSCAASGSIFQQYDRGWYRQAPGKDREFVAAISSSGGSTYYADSVKGRFTISRDNAKNTDYLQMKSLKAEDSAVYYCAVDTIGYTYVDYLHGSGEFGYWGQGTQVTVSS | low polyreactivity |

| Sequence | polyreactivity (PSR sort gate) |
| --- | --- |
| QVQLVESGGGLVQAGGSLRLSCAASGSIFQRNAIGWSRQAPGKERELVAAITTTGGITHYADSVKGRFTISRDNAKNTVYLQMNSLKPEDTAVYYCAASNEVPWRFPDDYWGQGTQVTVSS | low polyreactivity |
| QVQLVESGGGLVQAGGSLRLSCAASGSIFQRNAMGWYRQAPGKERELVASISFSDGTTYYADSVKGRCTISRDNAKNTVYLQMNSLKPEDTAVYYCAKKAIVSDQWDKYDYWGQGTQVTVSS | low polyreactivity |
| QVQLVESGGGLVQAGGSLRLSCAASGSIFQVNAMGWYRQAPGKERELVASITTSGGSTYYADSVKGRFTISRDNAKNTVYLQMNSLKPEDTAVYYCAADHWSQDYDYWGQGTQVTVSS | low polyreactivity |
| QVQLVESGGGLVQAGGSLRLSCAASGSIFQWYAMGWYRQAPGKERELVAVISRGGRTNYADSVKGRFTISRDNAKNTVYLQMNSLKPEDTAVYYCAAAVWFERGFSYRWRYGYWGQGTQVTVSS | high polyreactivity |
| QVQLVESGGGLVQAGGSLRLSCAASGSIFQYNAMGGSRQSPGEDRELVAAISRSGGSTYYADSVKGRFTNSRDNAKNTVYLQMNSLKPEDTAVYYCNAVLGYYSPYDYWVQGTQVTVSS | low polyreactivity |
| QVQLVESGGGLVQAGGSLRLSCAASGSIFQYNAMGWYRQAPGKEREFVAAITRGGGTYYADSVKGRFTISRDNAKKTVYLQMNSLKPEDTAVYYCAAQSRTSYRFNYWGQGTQVTVSS | high polyreactivity |
| QVQLVESGGGLVQAGGSLRLSCAASGSIFQYNAMGWYRQAPGKERELVAAINGGGSTYYADSVKGRFTISRDNAKNTVYLQMNSLKPEDTAVYYCAADGGAYSYRGPGKFGIEDSWGQGTQVTVSS | low polyreactivity |
| QVQLVESGGGLVQAGGSLRLSCAASGSIFQYNVMGRYRQEPGKEREFVADISSSGGSTYYADSVKGRFTISRDNAKNTVYLQMNSLKPEATAVYYCNARSKVAYDRHYYWGQGTQVTVSS | low polyreactivity |
| QVQLVESGGGLVQAGGSLRLSCAASGSIFQYVYAMGWYRQAPGKERELVATITWSGGTTYYADSVKGRFTISRDNAKNTVYLQMHSLKPEDTADYYCAAESIYYPVAQYYYSFEYWGQGTQVTVSS | low polyreactivity |
| QVQLVESGGGLVQAGGSLRLSCAASGSIFQYYAMGWYRQAPGKERELVAAISSAGSTKYADSVKGRFTISRDNAKNTVYLQMNSLKPEDTAVYYCAARDPSRHARRAYDYWGQGTQVTVSS | low polyreactivity |
| QVQLVESGGGLVQAGGSLRLSCAASGSIFQYYAMGWYRQAPGKERELVAVISFSDGSTYYADSVKGRFTISRDNAKNTVYLQMNSLKPEDTAVYYCARRRFSVSRRSYYWGQGTQVTVSS | high polyreactivity |
| QVQLVESGGGLVQAGGSLRLSCAASGSIFRAYAMGWSRQAPGKERELVAAISIGGRTYYADSVKGRFTISRDNAKNTVYLQMNSLKPEDTAVYYCAAVRSYVKGGMYYWGQGTQVTVSS | low polyreactivity |
| QVQLVESGGGLVQAGGSLRLSCAASGSIFRAYVMGWYRQAPGTERELVAAISRGGSTNYADSVKGRFTISRDNAKNTVFLQMNSLKPEDTAVYYCNAGRGLREDDYWGQGTQVTVSS | low polyreactivity |
| QVQLVESGGGLVQAGGSLRLSCAASGSIFRDNVMGWYRQAPGKERELVAAITQRGGSTYYADSVKGRFTISRDNAKNTVYVQMNSLKPEDTAVYYCNARRYVLRYNRFYYWGQGTEVTVSS | high polyreactivity |
| QVQLVESGGGLVQAGGSLRLSCAASGSIFRFNAMGWNRPAPGKERELVAAITSSGGSTYYADSVKGRFTISRDNAKNTVYLQMNSLKPEDTAVYYCAKRWLYPISYDYWGQGTQVTVSS | high polyreactivity |
